Values quoted from earlier work, collected in article PMC5393932.

Molecular target: P-selectin (Homo sapiens) (UniProt P16109)
UniProt P16109, sequence (P16109 42-771): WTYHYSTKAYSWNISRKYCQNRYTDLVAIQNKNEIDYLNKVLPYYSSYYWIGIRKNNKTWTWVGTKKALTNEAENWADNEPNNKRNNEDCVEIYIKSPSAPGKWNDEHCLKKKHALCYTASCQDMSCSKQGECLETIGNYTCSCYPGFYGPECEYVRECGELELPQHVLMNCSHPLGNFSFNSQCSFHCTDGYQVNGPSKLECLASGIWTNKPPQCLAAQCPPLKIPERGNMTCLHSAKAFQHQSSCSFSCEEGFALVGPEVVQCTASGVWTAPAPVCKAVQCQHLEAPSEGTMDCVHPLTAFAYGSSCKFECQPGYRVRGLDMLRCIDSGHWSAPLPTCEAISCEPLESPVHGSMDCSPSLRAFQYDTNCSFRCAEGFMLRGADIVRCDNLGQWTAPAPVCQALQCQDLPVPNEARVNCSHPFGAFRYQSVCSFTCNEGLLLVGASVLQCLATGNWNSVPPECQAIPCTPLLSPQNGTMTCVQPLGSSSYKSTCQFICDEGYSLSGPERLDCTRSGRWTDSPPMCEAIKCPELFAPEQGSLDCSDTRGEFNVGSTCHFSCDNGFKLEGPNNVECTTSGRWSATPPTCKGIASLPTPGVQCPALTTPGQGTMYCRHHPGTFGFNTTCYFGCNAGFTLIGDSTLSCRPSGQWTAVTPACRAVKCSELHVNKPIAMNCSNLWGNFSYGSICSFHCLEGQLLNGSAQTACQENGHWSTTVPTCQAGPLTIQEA

Kd: 70 nM
Substance: PSGL-1 (from UniProt Q14242)
